This is an account of results in publication PMC5364480.

The target of one assay is FLC, SEP3 and SOC1. Description: two-hybrid; pGADT7 AD and pGBKT7 BD vectors co-transformed into yeast Y187; quantitative β-galactosidase assay with ONPG (Miller units).
The target of a further assay is …3 (Arabidopsis) (UniProt O22456). Described as above.
The target in assay [1] is FLC (UniProt Q9S7Q7). The assay is described as above.
In assay [2] the target is SOC1 (UniProt O64645). The assay is described as above.
The target of assay [3] is FLC (UniProt Q9S7Q7). Description: yeast two-hybrid. The conditions noted are these: p>0.05 (open symbol); parent: 1; read off a plot.
Assay [4] has as its target SOC1 (UniProt O64645). Description: yeast two-hybrid. As to conditions: p>0.05 (open symbol); parent: 1; read off a plot.

SOC1, sequence (O64645 whole entry): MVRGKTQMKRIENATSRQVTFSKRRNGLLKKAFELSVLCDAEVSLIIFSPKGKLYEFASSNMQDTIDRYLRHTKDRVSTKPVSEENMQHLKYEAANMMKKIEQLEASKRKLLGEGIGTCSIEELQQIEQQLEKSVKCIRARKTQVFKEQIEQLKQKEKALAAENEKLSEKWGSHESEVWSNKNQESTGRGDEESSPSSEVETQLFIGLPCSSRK
FLC, sequence (Q9S7Q7 whole entry): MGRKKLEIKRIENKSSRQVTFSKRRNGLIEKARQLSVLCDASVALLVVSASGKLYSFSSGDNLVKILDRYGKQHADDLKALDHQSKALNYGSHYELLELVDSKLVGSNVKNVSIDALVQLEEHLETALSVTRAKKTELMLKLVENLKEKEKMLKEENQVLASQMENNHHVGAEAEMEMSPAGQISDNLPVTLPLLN
…3 (Arabidopsis), sequence (O22456 whole entry): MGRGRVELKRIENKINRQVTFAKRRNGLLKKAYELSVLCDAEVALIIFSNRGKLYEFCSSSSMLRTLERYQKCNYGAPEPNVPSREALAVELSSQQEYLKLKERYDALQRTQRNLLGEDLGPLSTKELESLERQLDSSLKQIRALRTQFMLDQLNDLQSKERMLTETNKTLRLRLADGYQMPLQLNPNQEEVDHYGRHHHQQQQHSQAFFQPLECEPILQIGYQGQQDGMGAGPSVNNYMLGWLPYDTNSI

“SVP with the unique C-domain insertion 176–196 deleted (from UniProt Q9FVC1 1-240) (natural protein)”: in the assay with FLC, SEP3 and SOC1, the percent decrease of binding against wild-type SVP lay within 84 to 95%.

With “SVP Q127R (from UniProt Q9FVC1 1-240) (natural protein)”, the percent decrease of binding against wild-type SVP with …3 (Arabidopsis) is 73%. For the same substance, the percent increase of binding against wild-type SVP in the assay with FLC [1] and with SOC1 [2] was 40% throughout.

Consider “SVP ins80M (from UniProt Q9FVC1 1-240) (natural protein)”, for which the percent decrease of binding against wild-type SVP with …3 (Arabidopsis) and in the assay with FLC [1] was 64% each time.

For the substance “SVP C-domain insertion 220–221 YD (from UniProt Q9FVC1 1-240) (natural protein)”, the percent decrease of binding against wild-type SVP in the assay with …3 (Arabidopsis) was 22%; with SOC1 [2], 28%.

“SHORT … PHASE (from UniProt Q9FVC1) ins220Y-221D”: the ratio to parent with FLC [3] amounted to 1.1.

In the assay with …3 (Arabidopsis), “SVP Del89V (from UniProt Q9FVC1 1-240) (natural protein)” yielded a percent increase of interaction strength against wild-type SVP of 6%. The percent decrease of binding against wild-type SVP came to 44% in the assay with FLC [1] and 86% in the assay with SOC1 [2].

On to SHORT … PHASE, Q9FVC1 ins80M, for which the ratio to parent with SOC1 [4] came out at 0.94.
